Residue numbers refer to the chain shown, from its start. Names may count otherwise. Values belong to the binder of their own block, whether it stands above or below them.
Key:
[1] = target: T1, NF-κB p65 subunit (endogenous, HEK-293T cells) (UniProt Q04206 1-551); assay: PD and Co-IP
T1 construct: Endogenous protein co-precipitated with HA-IκBα from transfected HEK-293T cells; also called p65/NF-κB; p65/RelA

[2] = target: T2, NF-κB p50 subunit (endogenous, HEK-293T cells) (UniProt P19838 1-433, limits assumed); assay: PD and Co-IP
T2 construct: Endogenous protein co-precipitated with HA-IκBα from transfected HEK-293T cells; also called p50 NF-κB
T2 sequence (looked up): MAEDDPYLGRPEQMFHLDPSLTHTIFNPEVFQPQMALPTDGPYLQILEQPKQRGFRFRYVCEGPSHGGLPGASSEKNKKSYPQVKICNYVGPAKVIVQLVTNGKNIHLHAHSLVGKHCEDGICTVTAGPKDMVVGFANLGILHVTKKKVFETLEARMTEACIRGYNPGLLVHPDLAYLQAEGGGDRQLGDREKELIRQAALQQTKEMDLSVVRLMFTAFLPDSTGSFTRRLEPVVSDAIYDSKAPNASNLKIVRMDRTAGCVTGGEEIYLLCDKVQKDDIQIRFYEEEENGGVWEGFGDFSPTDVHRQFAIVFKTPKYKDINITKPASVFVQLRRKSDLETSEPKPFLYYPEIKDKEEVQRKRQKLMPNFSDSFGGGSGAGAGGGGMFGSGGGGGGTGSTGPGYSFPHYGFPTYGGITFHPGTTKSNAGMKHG

[3] = target: T1, NF-κB p65 subunit (endogenous, HEK-293T …); assay: Co-IP of single point mutants, WB
[4] = target: T2, NF-κB p50 subunit (endogenous, HEK-293T …); assay: Co-IP of single point mutants, WB
[5] = target: T1, NF-κB p65 subunit (endogenous, HEK-293T …); assay: Co-IP from transfected HEK-293T cells, WB
[6] = target: T2, NF-κB p50 subunit (endogenous, HEK-293T …); assay: Co-IP from transfected HEK-293T cells, WB

T1 sequence (Q04206 whole entry): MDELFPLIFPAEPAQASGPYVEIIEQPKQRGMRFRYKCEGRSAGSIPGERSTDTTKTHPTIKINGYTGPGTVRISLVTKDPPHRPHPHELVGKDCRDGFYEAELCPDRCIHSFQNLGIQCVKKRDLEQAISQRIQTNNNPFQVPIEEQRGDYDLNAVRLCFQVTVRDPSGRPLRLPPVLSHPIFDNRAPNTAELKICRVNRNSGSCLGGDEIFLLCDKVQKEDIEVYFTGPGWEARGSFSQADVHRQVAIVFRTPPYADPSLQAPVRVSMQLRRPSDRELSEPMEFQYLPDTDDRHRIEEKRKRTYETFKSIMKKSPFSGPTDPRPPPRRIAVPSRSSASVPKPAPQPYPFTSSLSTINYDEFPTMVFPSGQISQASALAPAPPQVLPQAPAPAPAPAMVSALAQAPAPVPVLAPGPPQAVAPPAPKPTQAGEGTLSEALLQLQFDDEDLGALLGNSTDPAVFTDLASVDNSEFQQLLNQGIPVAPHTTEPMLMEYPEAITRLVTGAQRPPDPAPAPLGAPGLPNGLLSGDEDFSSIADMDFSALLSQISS

binding result [1]: binds
binding result [2]: binds
B1: IκBα HEE84-86AAA / SOF^NF-κB (SEQ ID NO: 1) (other)
chain: MFQAAERPQEWAMEGPRDGLKKERLLDDRHDSGLDSMKDEEYEQMVKELQEIRLEPQEVPRGSEPWKQQLTEDGDSFLHLAIIAAAKALTMEVIRQVKGDLAFLNFQNNLQQTPLHLAVITNQPEIAEALLGAGCDPELRDFRGNTPLHLACEQGCLASVGVLTQSCTTPHLHSILKATNYNGHTCLHLASIHGYLGIVELLVSLGADVNAQEPCNGRTALHLAVDLQNPDLVSLLLKCGADVNRVTYQGYSPYQLTWGRPSTRIQQQLGQLTLENLQMLPESEDEESYDTESEFTEFTEDELPYDDCVFGGQRLTL
notes: Compose mutant of IκBα, expressed in HEK-293T cells; also called IκBα SOF^NF-κB; H84, E85, E86 to A; not shown: HA tag

binding result [3]: no binding
binding result [4]: no binding
B2: IκBα N108A / SOF^PRC2 (SEQ ID NO: 3) (other)
chain: B1 chain with A84H, A85E, A86E, N108A
notes: Single point mutant of IκBα; also called IκBα SOF^PRC2 mutant N108A; IkBa N108A; not shown: HA tag

binding result [3]: no binding
binding result [4]: no binding
B3: IκBα D75A / SOF^PRC2 (SEQ ID NO: 2) (other)
chain: B1 chain with D75A, A84H, A85E, A86E
notes: Single point mutant of IκBα; also called IκBα SOF^PRC2; IkBa D75A; not shown: HA tag

binding result [5]: no binding
binding result [6]: no binding
B4: IκBα compose mutant H84, E85, E86, N108, Q112 to A (other)
chain: B1 chain with N108A, Q112A
notes: not shown: HA tag

— patent EP4239334A1 (Consorcio Centro de Investigación Biomédica en Red (CIBER), dated 2023)
